Reference: US20220204580A1 (AstraZeneca / MedImmune, published 2022)
One block for each binder: values may come before it. Numbered stars: 1 amine (or outer) side, 2 acyl side, 3 side chain; on linkers, the order of the positions; unused ones are H or OH. Bridge positions count the residues as written; N and C are the ends. Square brackets hold non-standard residues; d marks the D form. Side chains are listed from the residue outwards. Ends that are not written are not given here. * marks the point of attachment. C20 diacid = O=C(O)CCCCCCCCCCCCCCCCCCC(=O)*; C18 diacid = O=C(O)CCCCCCCCCCCCCCCCC(=O)*; γGlu = O=C(O)[C@H](CCC(=O)[*:2])N[*:1]; αMeF = C[C@](N)(Cc1ccccc1)C(=O)O; Dab = NCC[C@H](N)C(=O)O; Aib = CC(C)(N)C(=O)O

Experiments:
Experiment in all cases: cell-based or functional assay
[1] = molecular target: T1, human calcitonin receptor (human, UniProt P30988 25-474)
T1 sequence (looked up): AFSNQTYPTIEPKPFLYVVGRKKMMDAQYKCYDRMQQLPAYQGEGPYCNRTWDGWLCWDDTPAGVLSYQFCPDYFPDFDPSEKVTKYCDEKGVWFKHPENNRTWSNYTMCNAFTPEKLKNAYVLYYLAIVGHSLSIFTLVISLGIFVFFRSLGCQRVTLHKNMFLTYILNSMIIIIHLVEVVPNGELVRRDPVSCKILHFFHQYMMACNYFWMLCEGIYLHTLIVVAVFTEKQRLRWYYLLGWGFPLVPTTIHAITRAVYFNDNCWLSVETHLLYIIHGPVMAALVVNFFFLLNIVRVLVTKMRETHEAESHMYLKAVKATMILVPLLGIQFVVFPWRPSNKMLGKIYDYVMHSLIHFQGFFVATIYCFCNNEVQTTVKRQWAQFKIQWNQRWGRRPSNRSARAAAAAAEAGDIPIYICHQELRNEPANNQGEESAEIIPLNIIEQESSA

[2] = molecular target: T2, human amylin receptor (calcitonin receptor co-expressed with receptor activity modifying protein, RAMP3) (human, UniProt P30988 25-474; O60896 24-148)
T2 sequence (looked up) 1: T1 sequence (looked up)
T2 sequence (looked up) 2: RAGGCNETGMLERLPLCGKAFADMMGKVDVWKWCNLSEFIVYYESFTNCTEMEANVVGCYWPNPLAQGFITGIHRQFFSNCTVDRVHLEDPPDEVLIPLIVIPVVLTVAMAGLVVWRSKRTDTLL

[3] = molecular target: T3, rat amylin receptor (calcitonin receptor co-expressed with receptor activity modifying protein, RAMP3) (rat, UniProt P32214 25-516; Q9JJ73 23-147)
T3 sequence (looked up) 1: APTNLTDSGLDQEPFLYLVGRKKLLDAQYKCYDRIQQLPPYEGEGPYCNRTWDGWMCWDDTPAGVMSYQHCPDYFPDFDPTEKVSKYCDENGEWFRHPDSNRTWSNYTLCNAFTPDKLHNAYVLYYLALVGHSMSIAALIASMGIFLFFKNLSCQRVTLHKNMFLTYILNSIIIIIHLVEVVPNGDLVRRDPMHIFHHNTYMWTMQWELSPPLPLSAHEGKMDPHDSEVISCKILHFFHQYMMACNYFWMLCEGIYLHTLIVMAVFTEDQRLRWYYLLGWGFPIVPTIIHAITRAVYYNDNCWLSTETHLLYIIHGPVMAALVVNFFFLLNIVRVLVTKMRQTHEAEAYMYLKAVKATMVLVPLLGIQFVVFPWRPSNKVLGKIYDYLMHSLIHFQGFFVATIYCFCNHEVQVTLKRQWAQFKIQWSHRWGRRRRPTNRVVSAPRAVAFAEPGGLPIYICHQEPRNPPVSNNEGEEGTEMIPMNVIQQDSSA
T3 sequence (looked up) 2: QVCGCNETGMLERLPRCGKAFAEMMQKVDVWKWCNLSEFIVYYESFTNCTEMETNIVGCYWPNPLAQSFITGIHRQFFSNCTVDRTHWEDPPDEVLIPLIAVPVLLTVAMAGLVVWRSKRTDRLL

rat calcitonin receptor = molecular target: T4, rat calcitonin receptor (rat, UniProt P32214 25-516)
T4 sequence (looked up): T3 sequence (looked up) 1

B1: Peptide 8 (SEQ ID NO: 8) (peptide)
peptide: K([γGlu-γGlu-C18 diacid])CNTATCATQRLANFLVHSS[Dab]NFPAILSPTNVGSNTY-NH2
modifications: disulfide 2-7; N-terminus assumed
SMILES: CC[C@H](C)[C@H](NC(=O)[C@H](C)NC(=O)[C@@H]1CCCN1C(=O)[C@H](Cc1ccccc1)NC(=O)[C@H](CC(N)=O)NC(=O)[C@H](CCN)NC(=O)[C@H](CO)NC(=O)[C@H](CO)NC(=O)[C@H](Cc1c[nH]cn1)NC(=O)[C@@H](NC(=O)[C@H](CC(C)C)NC(=O)[C@H](Cc1ccccc1)NC(=O)[C@H](CC(N)=O)NC(=O)[C@H](C)NC(=O)[C@H](CC(C)C)NC(=O)[C@H](CCCNC(=N)N)NC(=O)[C@H](CCC(N)=O)NC(=O)[C@@H](NC(=O)[C@H](C)NC(=O)[C@@H]1CSSC[C@H](NC(=O)[C@@H](N)CCCCNC(=O)CC[C@H](NC(=O)CC[C@H](NC(=O)CCCCCCCCCCCCCCCCC(=O)O)C(=O)O)C(=O)O)C(=O)N[C@@H](CC(N)=O)C(=O)N[C@@H]([C@@H](C)O)C(=O)N[C@@H](C)C(=O)N[C@@H]([C@@H](C)O)C(=O)N1)[C@@H](C)O)C(C)C)C(=O)N[C@@H](CC(C)C)C(=O)N[C@@H](CO)C(=O)N1CCC[C@H]1C(=O)N[C@H](C(=O)N[C@@H](CC(N)=O)C(=O)N[C@H](C(=O)NCC(=O)N[C@@H](CO)C(=O)N[C@@H](CC(N)=O)C(=O)N[C@H](C(=O)N[C@@H](Cc1ccc(O)cc1)C(N)=O)[C@@H](C)O)C(C)C)[C@@H](C)O
EC50 (cAMP production) [1]: 20.2 nM
EC50 (cAMP production) [2]: 0.375 nM
Ratio (EC50 hCTR / EC50 hAMYR3) [2]: 54
EC50 (cAMP production) [3]: 0.0256 nM
EC50 (cAMP production) (rat calcitonin receptor): 19.9 nM

B4: Peptide 9 (SEQ ID NO: 9) (peptide)
peptide: K([γGlu-γGlu-C18 diacid])CNTATCATQRLANFLVHSS[Aib]NFPAILSPTNVGSNTY-NH2
modifications: disulfide 2-7; N-terminus assumed
SMILES: CC[C@H](C)[C@H](NC(=O)[C@H](C)NC(=O)[C@@H]1CCCN1C(=O)[C@H](Cc1ccccc1)NC(=O)[C@H](CC(N)=O)NC(=O)C(C)(C)NC(=O)[C@H](CO)NC(=O)[C@H](CO)NC(=O)[C@H](Cc1c[nH]cn1)NC(=O)[C@@H](NC(=O)[C@H](CC(C)C)NC(=O)[C@H](Cc1ccccc1)NC(=O)[C@H](CC(N)=O)NC(=O)[C@H](C)NC(=O)[C@H](CC(C)C)NC(=O)[C@H](CCCNC(=N)N)NC(=O)[C@H](CCC(N)=O)NC(=O)[C@@H](NC(=O)[C@H](C)NC(=O)[C@@H]1CSSC[C@H](NC(=O)[C@@H](N)CCCCNC(=O)CC[C@H](NC(=O)CC[C@H](NC(=O)CCCCCCCCCCCCCCCCC(=O)O)C(=O)O)C(=O)O)C(=O)N[C@@H](CC(N)=O)C(=O)N[C@@H]([C@@H](C)O)C(=O)N[C@@H](C)C(=O)N[C@@H]([C@@H](C)O)C(=O)N1)[C@@H](C)O)C(C)C)C(=O)N[C@@H](CC(C)C)C(=O)N[C@@H](CO)C(=O)N1CCC[C@H]1C(=O)N[C@H](C(=O)N[C@@H](CC(N)=O)C(=O)N[C@H](C(=O)NCC(=O)N[C@@H](CO)C(=O)N[C@@H](CC(N)=O)C(=O)N[C@H](C(=O)N[C@@H](Cc1ccc(O)cc1)C(N)=O)[C@@H](C)O)C(C)C)[C@@H](C)O
EC50 (cAMP production) [1]: 13.5 nM
EC50 (cAMP production) [2]: 0.32 nM
Ratio (EC50 hCTR / EC50 hAMYR3) [2]: 42
EC50 (cAMP production) [3]: 0.0178 nM
EC50 (cAMP production) (rat calcitonin receptor): 9.72 nM

Continued, values first:

EC50 (cAMP production) [1]: 2.73 nM
EC50 (cAMP production) [2]: 0.183 nM
Ratio (EC50 hCTR / EC50 hAMYR3) [2]: 15
EC50 (cAMP production) [3]: 0.0121 nM
EC50 (cAMP production) (rat calcitonin receptor): 2.78 nM
Binder: {C18 diacid-γGlu}-CNTATCATQRLAEFLRHSSNN[αMeF]GPILPPTNVGSNTY-NH2 (disulfide 1-6; numbers in words are those of the source; also: K1 deleted) [Peptide 10 (SEQ ID NO: 10)]

EC50 (cAMP production) [1]: 5.27 nM
EC50 (cAMP production) [2]: 0.126 nM
Ratio (EC50 hCTR / EC50 hAMYR3) [2]: 42
EC50 (cAMP production) [3]: 0.0048 nM
EC50 (cAMP production) (rat calcitonin receptor): 2.43 nM
B2: Peptide 48 (SEQ ID NO: 48) (peptide)
peptide: K([γGlu-C18 diacid])CNTATCATQRLANFLRHSS[Aib]NFGPILPPTNVGSNTY-NH2
modifications: disulfide 2-7; N-terminus assumed
SMILES: CC[C@H](C)[C@H](NC(=O)[C@@H]1CCCN1C(=O)CNC(=O)[C@H](Cc1ccccc1)NC(=O)[C@H](CC(N)=O)NC(=O)C(C)(C)NC(=O)[C@H](CO)NC(=O)[C@H](CO)NC(=O)[C@H](Cc1c[nH]cn1)NC(=O)[C@H](CCCNC(=N)N)NC(=O)[C@H](CC(C)C)NC(=O)[C@H](Cc1ccccc1)NC(=O)[C@H](CC(N)=O)NC(=O)[C@H](C)NC(=O)[C@H](CC(C)C)NC(=O)[C@H](CCCNC(=N)N)NC(=O)[C@H](CCC(N)=O)NC(=O)[C@@H](NC(=O)[C@H](C)NC(=O)[C@@H]1CSSC[C@H](NC(=O)[C@@H](N)CCCCNC(=O)CC[C@H](NC(=O)CCCCCCCCCCCCCCCCC(=O)O)C(=O)O)C(=O)N[C@@H](CC(N)=O)C(=O)N[C@@H]([C@@H](C)O)C(=O)N[C@@H](C)C(=O)N[C@@H]([C@@H](C)O)C(=O)N1)[C@@H](C)O)C(=O)N[C@@H](CC(C)C)C(=O)N1CCC[C@H]1C(=O)N1CCC[C@H]1C(=O)N[C@H](C(=O)N[C@@H](CC(N)=O)C(=O)N[C@H](C(=O)NCC(=O)N[C@@H](CO)C(=O)N[C@@H](CC(N)=O)C(=O)N[C@H](C(=O)N[C@@H](Cc1ccc(O)cc1)C(N)=O)[C@@H](C)O)C(C)C)[C@@H](C)O

EC50 (cAMP production) [1]: 1.22 nM
EC50 (cAMP production) [2]: 0.158 nM
Ratio (EC50 hCTR / EC50 hAMYR3) [2]: 8
EC50 (cAMP production) [3]: 0.005 nM
EC50 (cAMP production) (rat calcitonin receptor): 0.107 nM
B3: Peptide 12 (SEQ ID NO: 12) (peptide)
peptide: K([γGlu-C18 diacid])KCNTATCATQRLAEFLRHSSNN[αMeF]GPILPPTNVGSNTY-NH2
modifications: disulfide 3-8; N-terminus assumed
SMILES: CC[C@H](C)[C@H](NC(=O)[C@@H]1CCCN1C(=O)CNC(=O)[C@](C)(Cc1ccccc1)NC(=O)[C@H](CC(N)=O)NC(=O)[C@H](CC(N)=O)NC(=O)[C@H](CO)NC(=O)[C@H](CO)NC(=O)[C@H](Cc1c[nH]cn1)NC(=O)[C@H](CCCNC(=N)N)NC(=O)[C@H](CC(C)C)NC(=O)[C@H](Cc1ccccc1)NC(=O)[C@H](CCC(=O)O)NC(=O)[C@H](C)NC(=O)[C@H](CC(C)C)NC(=O)[C@H](CCCNC(=N)N)NC(=O)[C@H](CCC(N)=O)NC(=O)[C@@H](NC(=O)[C@H](C)NC(=O)[C@@H]1CSSC[C@H](NC(=O)[C@H](CCCCN)NC(=O)[C@@H](N)CCCCNC(=O)CC[C@H](NC(=O)CCCCCCCCCCCCCCCCC(=O)O)C(=O)O)C(=O)N[C@@H](CC(N)=O)C(=O)N[C@@H]([C@@H](C)O)C(=O)N[C@@H](C)C(=O)N[C@@H]([C@@H](C)O)C(=O)N1)[C@@H](C)O)C(=O)N[C@@H](CC(C)C)C(=O)N1CCC[C@H]1C(=O)N1CCC[C@H]1C(=O)N[C@H](C(=O)N[C@@H](CC(N)=O)C(=O)N[C@H](C(=O)NCC(=O)N[C@@H](CO)C(=O)N[C@@H](CC(N)=O)C(=O)N[C@H](C(=O)N[C@@H](Cc1ccc(O)cc1)C(N)=O)[C@@H](C)O)C(C)C)[C@@H](C)O

EC50 (cAMP production) [1]: 1.33 nM
EC50 (cAMP production) [2]: 0.861 nM
Ratio (EC50 hCTR / EC50 hAMYR3) [2]: 2
EC50 (cAMP production) [3]: 0.016 nM
EC50 (cAMP production) (rat calcitonin receptor): 0.259 nM
Binder: {C20 diacid-γGlu}-KCNTATCATQRLANFLVHSSNNFGPILPPTNVGSNTY-NH2 (disulfide 2-7) [Peptide 112 (SEQ ID NO: 112)]
